{"source": "paper doi:10.1101/2024.06.06.597810", "about": "(2024)", "note": "Where no end group is shown, it is not given here.", "data": [{"target": "T1, Biotin-labeled MHV stem helix peptide (MHV, also: biotin label, position not given here)", "T1 chain": "PDFKEELDKWFKNQ", "experiment": "BLI", "units": {"Kd": "nM"}, "values": [{"binder": "S2P6 UCA VH Y32Q/M48I double mutant Fab (Fab, V domains shown) VH: QVQLVQSGAEVKKPGASVKVSCKASGYTFTSQYMHWVRQAPGQGLEWIGIINPSGGSTSYAQKFQGRVTMTRDTSTSTVYMELSSLRSEDTAVYYCARGSPKGAFDYWGQGTLVTVSS VL: not shown", "Kd": 1190}, {"binder": "S2P6 UCA VH S56H Fab (Fab, V domains shown) VH: QVQLVQSGAEVKKPGASVKVSCKASGYTFTSYYMHWVRQAPGQGLEWMGIINPSGGHTSYAQKFQGRVTMTRDTSTSTVYMELSSLRSEDTAVYYCARGSPKGAFDYWGQGTLVTVSS VL: not shown", "Kd": 3760}, {"binder": "S2P6 UCA VH Y32Q/M48I/S56H triple mutant Fab (Fab, V domains shown) VH: QVQLVQSGAEVKKPGASVKVSCKASGYTFTSQYMHWVRQAPGQGLEWIGIINPSGGHTSYAQKFQGRVTMTRDTSTSTVYMELSSLRSEDTAVYYCARGSPKGAFDYWGQGTLVTVSS VL: not shown", "Kd": 2230}, {"binder": "S2P6 UCA VH Y32Q Fab (Fab, V domains shown) VH: QVQLVQSGAEVKKPGASVKVSCKASGYTFTSQYMHWVRQAPGQGLEWMGIINPSGGSTSYAQKFQGRVTMTRDTSTSTVYMELSSLRSEDTAVYYCARGSPKGAFDYWGQGTLVTVSS VL: not shown", "Kd": 2260}, {"binder": "S2P6 UCA VH M48I Fab (Fab, V domains shown) VH: QVQLVQSGAEVKKPGASVKVSCKASGYTFTSYYMHWVRQAPGQGLEWIGIINPSGGSTSYAQKFQGRVTMTRDTSTSTVYMELSSLRSEDTAVYYCARGSPKGAFDYWGQGTLVTVSS VL: not shown", "Kd": 731}, {"binder": "S2P6 UCA VH M48I/S56H double mutant Fab (Fab, V domains shown) VH: QVQLVQSGAEVKKPGASVKVSCKASGYTFTSYYMHWVRQAPGQGLEWIGIINPSGGHTSYAQKFQGRVTMTRDTSTSTVYMELSSLRSEDTAVYYCARGSPKGAFDYWGQGTLVTVSS VL: not shown", "Kd": 1300}]}]}
